Test results taken from patent US20190194358A1 (ARIZONA BOARD OF REGENTS A BODY CORPORATE OF THE STATE OF …, published 2019).
Ends that are not written are not given here.

What was measured:
[1] = biological target: T1, ABHD14B (human, UniProt Q96IU4); assay: Invitrogen ProtoArray Human Protein Microarray v4.0; biotinylated synbody, fluorescently labelled streptavidin; fluorescence intensity above background
T1 construct: GST fusion on the array
T1 sequence (looked up): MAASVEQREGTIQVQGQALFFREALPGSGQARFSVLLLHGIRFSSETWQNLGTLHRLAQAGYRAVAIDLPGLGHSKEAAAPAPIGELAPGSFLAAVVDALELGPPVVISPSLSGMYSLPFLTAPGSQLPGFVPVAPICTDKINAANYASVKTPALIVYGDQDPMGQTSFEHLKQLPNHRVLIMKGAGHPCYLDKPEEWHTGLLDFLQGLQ
Protocol: (§1) The prescribed cover slip was placed over the array and adjusted to remove air bubbles. The array was incubated in a 50 ml conical tube, printed side up, for 1.5 hours at 4 C without shaking. The array was then removed from the conical tube inserted diagonally into the array chamber, kept on ice. 8 ml probing buffer was added to the chamber wall. The cover slip was removed and the array was incubated in probing buffer for 1 minute on ice. The probing buffer was decanted and drained. Two further washings were performed adding 8 ml probing buffer, incubating on ice for 1 minute, and decanting and draining. 5 nM fluorescently labeled streptavidin diluted in 6 ml probing buffer was incubated on the array for 30 minutes on ice in the dark, after which the solution was decanted and drained. Three wash steps were performed, each by adding 8 ml probing buffer, incubating for 1 minute on ice, decanting, and draining. The array was removed from the chamber, centrifuged at 800×g for 5 minutes at room temperature. The array was dried in the dark for 60 minutes at room temperature, after which it was scanned using a fluorescent microarray scanner and data was taken and analyzed.

[2] = biological target: T2, PTK2 (human, UniProt Q05397); assay: as above
T2 construct: GST fusion on the array
T2 sequence (Q05397 whole entry, the tested form may be a part): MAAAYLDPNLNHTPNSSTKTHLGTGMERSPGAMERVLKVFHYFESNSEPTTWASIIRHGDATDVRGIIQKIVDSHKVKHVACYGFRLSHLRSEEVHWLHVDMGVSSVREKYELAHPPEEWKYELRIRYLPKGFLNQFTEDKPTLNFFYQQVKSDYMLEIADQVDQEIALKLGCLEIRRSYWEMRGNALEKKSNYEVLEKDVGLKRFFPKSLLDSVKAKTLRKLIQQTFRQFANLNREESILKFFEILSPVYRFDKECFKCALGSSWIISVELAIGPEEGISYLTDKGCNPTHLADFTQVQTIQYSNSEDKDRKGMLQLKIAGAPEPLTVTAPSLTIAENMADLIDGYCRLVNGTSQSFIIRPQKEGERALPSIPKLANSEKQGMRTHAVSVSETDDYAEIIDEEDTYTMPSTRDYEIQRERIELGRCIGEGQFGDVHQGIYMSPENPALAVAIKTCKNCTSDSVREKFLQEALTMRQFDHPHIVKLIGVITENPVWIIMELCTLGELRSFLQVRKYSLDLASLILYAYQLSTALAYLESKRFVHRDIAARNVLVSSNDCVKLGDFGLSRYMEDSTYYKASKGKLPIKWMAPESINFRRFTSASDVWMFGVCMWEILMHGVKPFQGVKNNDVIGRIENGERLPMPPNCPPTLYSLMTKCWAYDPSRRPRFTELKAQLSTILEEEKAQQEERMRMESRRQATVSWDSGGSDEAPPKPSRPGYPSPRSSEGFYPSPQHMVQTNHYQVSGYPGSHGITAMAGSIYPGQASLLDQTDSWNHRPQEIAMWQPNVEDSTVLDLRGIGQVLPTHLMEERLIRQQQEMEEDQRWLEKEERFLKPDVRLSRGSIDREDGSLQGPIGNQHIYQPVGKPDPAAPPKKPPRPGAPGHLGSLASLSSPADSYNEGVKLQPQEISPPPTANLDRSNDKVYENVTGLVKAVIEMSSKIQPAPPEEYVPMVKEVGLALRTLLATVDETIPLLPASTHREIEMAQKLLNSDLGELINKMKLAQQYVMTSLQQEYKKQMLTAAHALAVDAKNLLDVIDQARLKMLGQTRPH
Protocol: as §1

[3] = biological target: T3, ROCK2 (human, UniProt O75116); assay: as above
T3 construct: GST fusion on the array
T3 sequence (O75116 1-552 limits assumed): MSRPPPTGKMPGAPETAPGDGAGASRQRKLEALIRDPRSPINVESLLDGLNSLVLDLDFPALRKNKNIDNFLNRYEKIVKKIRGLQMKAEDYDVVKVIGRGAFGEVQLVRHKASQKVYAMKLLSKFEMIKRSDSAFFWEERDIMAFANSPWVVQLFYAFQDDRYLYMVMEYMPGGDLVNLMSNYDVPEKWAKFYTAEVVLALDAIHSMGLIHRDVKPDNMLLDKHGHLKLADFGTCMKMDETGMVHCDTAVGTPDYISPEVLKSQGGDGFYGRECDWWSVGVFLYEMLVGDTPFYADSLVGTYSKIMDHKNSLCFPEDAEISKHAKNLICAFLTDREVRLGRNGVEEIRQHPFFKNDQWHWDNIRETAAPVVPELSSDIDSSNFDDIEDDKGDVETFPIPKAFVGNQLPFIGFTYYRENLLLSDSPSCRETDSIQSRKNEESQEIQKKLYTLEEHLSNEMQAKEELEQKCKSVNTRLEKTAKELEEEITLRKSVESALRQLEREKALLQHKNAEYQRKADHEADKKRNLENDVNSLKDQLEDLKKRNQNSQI
Protocol: as §1

[4] = biological target: T4, PRKAA1 (human, UniProt Q13131); assay: as above
T4 construct: GST fusion on the array
T4 sequence (Q13131 whole entry, the tested form may be a part): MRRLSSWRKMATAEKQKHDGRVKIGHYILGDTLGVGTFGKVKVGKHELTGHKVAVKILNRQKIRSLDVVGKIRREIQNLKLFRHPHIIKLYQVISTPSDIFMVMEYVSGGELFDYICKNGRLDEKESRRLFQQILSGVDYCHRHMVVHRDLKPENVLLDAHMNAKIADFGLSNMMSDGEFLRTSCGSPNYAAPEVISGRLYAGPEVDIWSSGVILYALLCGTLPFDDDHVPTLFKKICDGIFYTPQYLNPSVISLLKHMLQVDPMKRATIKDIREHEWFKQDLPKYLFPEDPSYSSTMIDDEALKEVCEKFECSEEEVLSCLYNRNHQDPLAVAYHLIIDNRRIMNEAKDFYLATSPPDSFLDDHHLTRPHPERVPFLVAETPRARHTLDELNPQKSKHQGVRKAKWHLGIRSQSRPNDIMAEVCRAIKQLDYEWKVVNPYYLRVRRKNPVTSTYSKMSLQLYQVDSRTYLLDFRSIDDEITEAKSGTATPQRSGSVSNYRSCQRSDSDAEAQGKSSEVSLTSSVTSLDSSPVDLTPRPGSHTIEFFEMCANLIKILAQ
Protocol: as §1

[5] = biological target: T5, NADK (human, UniProt O95544); assay: as above
T5 construct: GST fusion on the array
T5 sequence (looked up): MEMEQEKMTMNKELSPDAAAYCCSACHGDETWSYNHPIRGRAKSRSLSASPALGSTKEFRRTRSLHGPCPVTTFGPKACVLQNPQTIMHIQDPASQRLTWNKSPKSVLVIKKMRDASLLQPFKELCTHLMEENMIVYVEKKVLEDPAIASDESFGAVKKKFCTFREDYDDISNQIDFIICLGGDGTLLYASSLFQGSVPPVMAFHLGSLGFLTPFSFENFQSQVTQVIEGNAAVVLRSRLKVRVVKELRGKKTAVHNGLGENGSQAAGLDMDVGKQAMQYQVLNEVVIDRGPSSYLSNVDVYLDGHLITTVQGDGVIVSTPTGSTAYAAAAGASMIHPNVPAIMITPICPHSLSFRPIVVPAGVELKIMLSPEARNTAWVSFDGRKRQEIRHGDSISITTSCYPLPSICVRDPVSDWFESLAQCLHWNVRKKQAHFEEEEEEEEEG
Protocol: as §1

[6] = biological target: T6, LACRT (human, UniProt Q9GZZ8); assay: as above
T6 construct: GST fusion on the array
T6 sequence (looked up): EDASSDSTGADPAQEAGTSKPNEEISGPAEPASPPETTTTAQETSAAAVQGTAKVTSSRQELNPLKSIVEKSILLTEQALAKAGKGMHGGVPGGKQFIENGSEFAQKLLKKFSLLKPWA
Protocol: as §1

[7] = biological target: T7, ANXA1 (human, UniProt P04083); assay: as above
T7 construct: GST fusion on the array
T7 sequence (looked up): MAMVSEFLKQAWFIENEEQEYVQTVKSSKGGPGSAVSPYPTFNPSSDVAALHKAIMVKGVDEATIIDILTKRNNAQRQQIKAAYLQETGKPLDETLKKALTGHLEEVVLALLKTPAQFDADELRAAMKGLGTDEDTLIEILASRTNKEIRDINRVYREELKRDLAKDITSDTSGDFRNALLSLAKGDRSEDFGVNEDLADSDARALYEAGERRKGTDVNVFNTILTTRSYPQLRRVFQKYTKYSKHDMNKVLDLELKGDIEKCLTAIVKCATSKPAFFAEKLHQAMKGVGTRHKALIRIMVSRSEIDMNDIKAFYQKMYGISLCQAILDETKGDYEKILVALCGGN
Protocol: as §1

[8] = biological target: T8, transferrin (human, UniProt P02787 20-698); assay: SPR
T8 construct: also called TRF; pooled human transferrin (Sigma)
T8 sequence (P02787 20-698 limits assumed): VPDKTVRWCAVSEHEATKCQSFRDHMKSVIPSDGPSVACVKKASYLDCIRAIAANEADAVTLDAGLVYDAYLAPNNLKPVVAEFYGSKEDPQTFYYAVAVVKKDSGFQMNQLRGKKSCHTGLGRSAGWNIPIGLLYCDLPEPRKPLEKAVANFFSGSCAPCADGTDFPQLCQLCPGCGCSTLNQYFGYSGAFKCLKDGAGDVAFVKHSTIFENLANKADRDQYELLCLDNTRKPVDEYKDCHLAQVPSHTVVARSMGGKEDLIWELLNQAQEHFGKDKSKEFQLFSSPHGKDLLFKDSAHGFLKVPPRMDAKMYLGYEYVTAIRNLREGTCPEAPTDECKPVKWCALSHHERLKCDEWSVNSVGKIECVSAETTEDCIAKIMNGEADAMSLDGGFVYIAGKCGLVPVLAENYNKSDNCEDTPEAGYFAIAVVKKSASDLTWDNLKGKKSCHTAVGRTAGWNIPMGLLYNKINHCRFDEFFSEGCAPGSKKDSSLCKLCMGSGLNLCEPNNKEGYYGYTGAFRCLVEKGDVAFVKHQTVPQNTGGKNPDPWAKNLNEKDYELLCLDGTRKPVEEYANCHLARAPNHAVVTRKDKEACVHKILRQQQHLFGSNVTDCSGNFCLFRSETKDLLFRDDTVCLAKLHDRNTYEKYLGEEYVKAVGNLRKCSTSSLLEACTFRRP

[9] = biological target: T9, GRP58 (human, UniProt P30101 25-505, limits assumed); assay: human protein microarray (Protoarray), fluorescence intensity
T9 construct: GST fusion adsorbed on a nitrocellulose slide
T9 sequence (looked up): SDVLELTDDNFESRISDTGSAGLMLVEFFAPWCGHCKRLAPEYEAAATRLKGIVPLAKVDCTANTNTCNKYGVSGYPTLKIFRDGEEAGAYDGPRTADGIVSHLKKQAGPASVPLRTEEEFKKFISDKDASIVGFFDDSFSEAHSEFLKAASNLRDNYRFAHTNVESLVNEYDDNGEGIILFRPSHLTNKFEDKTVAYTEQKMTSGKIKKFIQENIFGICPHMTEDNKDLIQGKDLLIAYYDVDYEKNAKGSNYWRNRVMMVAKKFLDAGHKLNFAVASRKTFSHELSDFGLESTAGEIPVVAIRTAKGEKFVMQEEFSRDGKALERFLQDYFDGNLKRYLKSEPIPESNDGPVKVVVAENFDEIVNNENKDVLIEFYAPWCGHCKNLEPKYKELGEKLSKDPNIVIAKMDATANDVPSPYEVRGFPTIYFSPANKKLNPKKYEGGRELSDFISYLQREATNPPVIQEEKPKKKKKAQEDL
Protocol: as §1

[10] = biological target: T10, Fbox-21 (human, UniProt O94952 1-628); assay: as above
T10 construct: GST fusion adsorbed on a nitrocellulose slide
T10 sequence (looked up): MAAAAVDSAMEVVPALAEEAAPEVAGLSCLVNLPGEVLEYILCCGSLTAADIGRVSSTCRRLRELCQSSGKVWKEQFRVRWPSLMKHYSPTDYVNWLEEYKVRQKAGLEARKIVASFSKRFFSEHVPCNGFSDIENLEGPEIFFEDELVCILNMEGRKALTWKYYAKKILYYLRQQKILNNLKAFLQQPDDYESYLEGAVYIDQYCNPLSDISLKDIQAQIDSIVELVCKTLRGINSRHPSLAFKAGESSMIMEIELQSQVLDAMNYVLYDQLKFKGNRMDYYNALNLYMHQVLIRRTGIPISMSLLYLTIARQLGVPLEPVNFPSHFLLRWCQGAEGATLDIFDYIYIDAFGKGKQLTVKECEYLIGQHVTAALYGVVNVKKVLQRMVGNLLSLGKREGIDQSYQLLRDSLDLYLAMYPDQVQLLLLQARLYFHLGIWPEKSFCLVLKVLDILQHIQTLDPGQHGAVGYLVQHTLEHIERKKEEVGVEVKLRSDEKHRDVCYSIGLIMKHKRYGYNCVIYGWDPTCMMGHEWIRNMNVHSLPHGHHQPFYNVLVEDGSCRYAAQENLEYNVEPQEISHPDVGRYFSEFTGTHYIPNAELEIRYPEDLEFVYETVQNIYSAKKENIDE
Protocol: as §1

binding result [1]: no binding | binding result [2]: no binding | binding result [3]: no binding | binding result [4]: no binding | binding result [5]: no binding | binding result [6]: no binding | binding result [7]: binds | Kd [8]: ~141 nM | binding result [9]: binds | binding result [10]: binds
B1: SYN23-26 (designed binder)
peptide 1: AHKVVPQRQIRHAYNRYGSG
peptide 2: FRGWAHIFFGPHVIYRGGSG
modifications: also: two chains joined by their C-termini to a branching Lys (epsilon/alpha N), Lys linker followed by Cys, Cys thiol biotinylated
notes: Lysine linker followed by cysteine; the thiol of the cysteine biotinylated for the protein array; also called anti-TRF synbody
